Test results as given in a protein production outcome set (Wang et al. 2014).

Test: label from the status in PepcDB records

MLRASLLCSSTSITFTPIQLFNPNSSHRFPRFELSRPVSALSRTKCHLSLLRARGKSSFLTRSTATDEAVETSSNSGLDLVEVGFLSGVHGLQGEICIKPNTDFPDLRFSKPGRRWLKQQLLGQDKIDEVELVEGRPHPAQKSWILKFRGLDDVDQVRQLVGATLLAEDDDRPELDEGEFYSRDLVGMRVLLKETGQLVGTVANIFDNGGNDLLHVLLDSSMEVCNGNAKTNQLVWIPFVDAIVPDVDLERKEMYITPPKGLLEVNMRADDRSKKERRQLEWKERKKQQKRLIAAKKKLCEMEQKHVFDGLRFGEKSQRNLLADHILNVNSTLLQKALQSIDTSSKRWNVTEEINALRARVSECNLSVSRECLSFDASKENMGDNFSFLQQGQNLFSEGKVSICLVLNDHENEEPEGENGVVSYLHALLDEEQRFIKEEDRACVPLVIVSPEHTIEALQKLFQDNDHFGFESEKIWILKEETLPVVCSSPEEPKKHKILMKSPWEILESPVGSGGVLSILASHGTTDSLSTLGINYLQVHSIETKPQPSQHYINPMLVGFVSARGAEIGIQVTEESELKNLEMTFSMKFLKRLKGKIEFEAVMKMNSHVQNVEKEWVESVPSEPNSFEFRSDIYRVLSECSSSAKICLMNITV
protein production: failed

MKYISPGFVDAHSHIGMIPDGLEWEFQEANDFYSPIAPHLRAVDGFDPYDEAFKEAIAGGVTTVATGPGSANVMGGIGLLAKTYEEGFEKIIKPEAFIKMALGPKRPREYKSKYPYPTTRMGTVALMRTWFKRAREFMEGKIKTDNIDEEEIEMLRLLARALKREIQVKIHLSTSPDEIYAAIRIIKEFNLNATIDHAFGSQLVADMLSREGIPVIYGPPMITRIASFFRYVDDKAPVLLFKKGVNVSIMTDHPVLPEKHLRLLAAVVARNGLSLDDALKLITINPAKALGIDRFVGSLEHHHHHH
protein production: failed
